Laboratory results: patent US20190352359A1 (IMMATICS BIOTECHNOLOGIES, published 2019)

B1: DNAH17-004 (peptide)
peptide: TYGEEMPEEI
notes: also called TYGEEMPEEI
B2: PTP-045 (peptide)
peptide: VYPSESTVM
notes: also called VYPSESTVM
B3: GLYATL3-001 (peptide)
peptide: YIANLISCF
notes: also called YIANLISCF
B4: SPINK2-002 (peptide)
peptide: LYMRFVNTHF
notes: also called LYMRFVNTHF
B5: PAE-002 (peptide)
peptide: IMQGFIRAF
notes: also called IMQGFIRAF
B6: SMC1B-002 (peptide)
peptide: IFQHFCEEI
notes: also called IFQHFCEEI
B7: COL11A1-005 (peptide)
peptide: RPEKVFVF
notes: also called RPEKVFVF
B8: WISP3-002 (peptide)
peptide: VFQPNPLF
notes: also called VFQPNPLF
B9: TRDV3-001 (peptide)
peptide: IRPDYSFQF
notes: also called IRPDYSFQF
B10: HMCN1-009 (peptide)
peptide: KYKPVALQCIA
notes: also called KYKPVALQCIA
B11: SLC6A3-001 (peptide)
peptide: FMVIAGMPLF
notes: also called FMVIAGMPLF
B12: FCRL5-006 (peptide)
peptide: LQPPWTTVF
notes: also called LQPPWTTVF
B13: F5-007 (peptide)
peptide: SIYPHGVTF
notes: also called SIYPHGVTF
B14: FBXW10-001 (peptide)
peptide: MFQFEHIKW
notes: also called MFQFEHIKW
B15: FCRL3-004 (peptide)
peptide: AQGSGTVTF
notes: also called AQGSGTVTF
B16: ANO7-004 (peptide)
peptide: MHRTWRETF
notes: also called MHRTWRETF
B17: HMCN1-012 (peptide)
peptide: SLPGSFIYVF
notes: also called SLPGSFIYVF
B18: LAMC2-019 (peptide)
peptide: SYFEYRRLL
notes: also called SYFEYRRLL
B19: COL10-001 (peptide)
peptide: MLPQIPFLLL
notes: also called MLPQIPFLLL
B20: BTBD17-003 (peptide)
peptide: RRVTWNVLF
notes: also called RRVTWNVLF
B21: PTP-044 (peptide)
peptide: VYDTMIEKFA
notes: also called VYDTMIEKFA
B22: HMCN1-013 (peptide)
peptide: VYVRPRVF
notes: also called VYVRPRVF
B23: ANO7-005 (peptide)
peptide: RRYFGEKVAL
notes: also called RRYFGEKVAL
B24: QRFPR-002 (peptide)
peptide: ALFAVCWAPF
notes: also called ALFAVCWAPF
B25: RFX8-001 (peptide)
peptide: YLKSVQLF
notes: also called YLKSVQLF
B26: LIN-001 (peptide)
peptide: KWFNVRMGFGF
notes: also called KWFNVRMGFGF
B27: MMP13-004 (peptide)
peptide: EYNVFPRTL
notes: also called EYNVFPRTL
B28: COL11A1-006 (peptide)
peptide: VGRSPVFLF
notes: also called VGRSPVFLF
B29: ESR-001 (peptide)
peptide: VWSCEGCKAF
notes: also called VWSCEGCKAF
B30: CYP4Z-002 (peptide)
peptide: ELMAHPFLL
notes: also called ELMAHPFLL
B31: FCRL5-005 (peptide)
peptide: ILQAPLSVF
notes: also called ILQAPLSVF
B32: ANO7-001 (peptide)
peptide: FLPRAYYRW
notes: also called FLPRAYYRW
B33: LAMC2-018 (peptide)
peptide: DYSKQALSL
notes: also called DYSKQALSL
B34: HEPHL-004 (peptide)
peptide: RYFDENIQKF
notes: also called RYFDENIQKF
B35: BTBD16-004 (peptide)
peptide: TYSKTIALYGF
notes: also called TYSKTIALYGF
B36: SLC5A4-001 (peptide)
peptide: AYLKLLPMF
notes: also called AYLKLLPMF
B37: KBTBD8-005 (peptide)
peptide: VLQGEFFLF
notes: also called VLQGEFFLF
B38: FLT3-010 (peptide)
peptide: FYKLIQNGF
notes: also called FYKLIQNGF
B39: GABRP-004 (peptide)
peptide: NYTRLVLQF
notes: also called NYTRLVLQF
B40: SYT12-001 (peptide)
peptide: SYLPTAERL
notes: also called SYLPTAERL
B41: NPFFR2-002 (peptide)
peptide: IYIYPFAHW
notes: also called IYIYPFAHW
B42: ERV-002 (peptide)
peptide: KWFDSHIPRW
notes: also called KWFDSHIPRW
B43: CLEC17-005 (peptide)
peptide: RWLDGSPVTL
notes: also called RWLDGSPVTL
B44: GABRP-005 (peptide)
peptide: TYVPSTFLV
notes: also called TYVPSTFLV
B45: CAPN6-003 (peptide)
peptide: NYVLVPTMF
notes: also called NYVLVPTMF
B46: EML-002 (peptide)
peptide: VYKEDLPQL
notes: also called VYKEDLPQL
B47: PTP-042 (peptide)
peptide: VFPLVTPLL
notes: also called VFPLVTPLL
B48: KISS1R-003 (peptide)
peptide: LYAFLGSHF
notes: also called LYAFLGSHF
B49: CYP1A1-002 (peptide)
peptide: RYLPNPSLNAF
notes: also called RYLPNPSLNAF
B50: GABRP-007 (peptide)
peptide: YTIERYFTL
notes: also called YTIERYFTL
B51: UGT1A3-002 (peptide)
peptide: KYLSIPTVFF
notes: also called KYLSIPTVFF
B52: F5-005 (peptide)
peptide: IYYSHENLI
notes: also called IYYSHENLI
B53: IL9R-001 (peptide)
peptide: RYTGQWSEW
notes: also called RYTGQWSEW
B54: FCRL2-004 (peptide)
peptide: YFCSTKGQLF
notes: also called YFCSTKGQLF
B55: HMCN1-011 (peptide)
peptide: LYIDKGQYL
notes: also called LYIDKGQYL
B56: PLA2G2D-001 (peptide)
peptide: IYKDYYRYNF
notes: also called IYKDYYRYNF
B57: DLX5-003 (peptide)
peptide: SYLENSASW
notes: also called SYLENSASW
B58: DCX-001 (peptide)
peptide: VYAVSSDRF
notes: also called VYAVSSDRF
B59: CDK6-007 (peptide)
peptide: SYATPVDLW
notes: also called SYATPVDLW
B60: OR51E2-003 (peptide)
peptide: IGLSVVHRF
notes: also called IGLSVVHRF
B61: KLHDC7B-006 (peptide)
peptide: RYSPVKDAW
notes: also called RYSPVKDAW
B62: BTBD16-002 (peptide)
peptide: LYGFFFKI
notes: also called LYGFFFKI
B63: GABRP-006 (peptide)
peptide: TYVPSTFLVVL
notes: also called TYVPSTFLVVL
B64: TGM4-003 (peptide)
peptide: TYINSLAIL
notes: also called TYINSLAIL
B65: OXTR-002 (peptide)
peptide: VYIVPVIVL
notes: also called VYIVPVIVL
B66: COL24-002 (peptide)
peptide: SWHKATFLF
notes: also called SWHKATFLF

What follows are binders tested against T1, HLA-A*24 (assay: UV peptide-exchange ELISA (anti-b2m); yield grade ++ = >20%).
T1 construct: Monomers captured on streptavidin plates; also called peptide-receptive MHC molecules; MHC complexes
Source text: (§1) Candidate peptides for T cell based therapies according to the present invention were further tested for their MHC binding capacity (affinity). The individual peptide-MHC complexes were produced by UV-ligand exchange, where a UV-sensitive peptide is cleaved upon UV-irradiation, and exchanged with the peptide of interest as analyzed. Only peptide candidates that can effectively bind and stabilize the peptide-receptive MHC molecules prevent dissociation of the MHC complexes. To determine the yield of the exchange reaction, an ELISA was performed based on the detection of the light chain (p2m) of stabilized MHC complexes. The assay was performed as generally described in Rodenko et al. (Rodenko et al., 2006)
(§2) 96 well MAXISorp plates (NUNC) were coated over night with 2 ug/ml streptavidin in PBS at room temperature, washed 4× and blocked for 1 h at 37° C. in 2% BSA containing blocking buffer. Refolded HLA-A*02:01/MLA-001 monomers served as standards, covering the range of 15-500 ng/ml. Peptide-MHC monomers of the UV-exchange reaction were diluted 100-fold in blocking buffer. Samples were incubated for 1 h at 37° C., washed four times, incubated with 2 ug/ml HRP conjugated anti-β2m for 1h at 37° C., washed again and detected with TMB solution that is stopped with […]. Absorption was measured at 450 nm. Candidate peptides that show a high exchange yield (preferably higher than 50%, most preferred higher than 75%) are generally preferred for a generation and production of antibodies or fragments thereof, and/or T cell receptors or fragments thereof, as they show sufficient avidity to the MHC molecules and prevent dissociation of the MHC complexes.
For B1, the peptide exchange yield was 20 to 50%. Work on B2 yielded a peptide exchange yield of 20 to 50%. Work on B3 yielded a peptide exchange yield of 20 to 50%. B4 was tested, and the peptide exchange yield was 20 to 50%. For B5, the peptide exchange yield was 20 to 50%. In the case of B6, the peptide exchange yield is reported as 20 to 50%. Work on B7 yielded a peptide exchange yield of 20 to 50%. B8 gave a peptide exchange yield of 20 to 50%. Work on B9 yielded a peptide exchange yield of 20 to 50%. With B10 the peptide exchange yield was 20 to 50%. In the case of B11, the peptide exchange yield is reported as 20 to 50%. B12 was tested, and the peptide exchange yield was 20 to 50%. B13 was tested, and the peptide exchange yield was 20 to 50%. B14 was tested, and the peptide exchange yield was 20 to 50%. Work on B15 yielded a peptide exchange yield of 20 to 50%. B16 showed a peptide exchange yield of 20 to 50%. In the case of B17, the peptide exchange yield is reported as 20 to 50%. With B18 the peptide exchange yield was 20 to 50%. Work on B19 yielded a peptide exchange yield of 20 to 50%. Work on B20 yielded a peptide exchange yield of 20 to 50%. For B21, the peptide exchange yield was 20 to 50%. Binder B22 has a peptide exchange yield of 20 to 50%. Work on B23 yielded a peptide exchange yield of 20 to 50%. For B24, the peptide exchange yield was 20 to 50%. Binder B25 has a peptide exchange yield of 20 to 50%. B26 gave a peptide exchange yield of 20 to 50%. For B27, the peptide exchange yield was 20 to 50%. B28 gave a peptide exchange yield of 20 to 50%. Binder B29 has a peptide exchange yield of 20 to 50%. Work on B30 yielded a peptide exchange yield of 20 to 50%. B31 gave a peptide exchange yield of 20 to 50%. B32 was tested, and the peptide exchange yield was 20 to 50%. In the case of B33, the peptide exchange yield is reported as 20 to 50%.

These binders were tested against T1, HLA-A*24 (assay: UV peptide-exchange ELISA (anti-b2m); yield grade ++++ = >75%).
Source text: as §1, §2
B34 was tested, and the peptide exchange yield was > 75%. With B35 the peptide exchange yield was > 75%. In the case of B36, the peptide exchange yield is reported as > 75%. With B37 the peptide exchange yield was > 75%. With B38 the peptide exchange yield was > 75%. B39 was tested, and the peptide exchange yield was > 75%. In the case of B40, the peptide exchange yield is reported as > 75%. B41 was tested, and the peptide exchange yield was > 75%. B42 was tested, and the peptide exchange yield was > 75%. B43 was tested, and the peptide exchange yield was > 75%. With B44 the peptide exchange yield was > 75%. In the case of B45, the peptide exchange yield is reported as > 75%. For B46, the peptide exchange yield was > 75%. B47 was tested, and the peptide exchange yield was > 75%. With B48 the peptide exchange yield was > 75%. B49 was tested, and the peptide exchange yield was > 75%. In the case of B50, the peptide exchange yield is reported as > 75%. With B51 the peptide exchange yield was > 75%. In the case of B52, the peptide exchange yield is reported as > 75%. With B53 the peptide exchange yield was > 75%. With B54 the peptide exchange yield was > 75%. In the case of B55, the peptide exchange yield is reported as > 75%. In the case of B56, the peptide exchange yield is reported as > 75%. For B57, the peptide exchange yield was > 75%. For B58, the peptide exchange yield was > 75%. For B59, the peptide exchange yield was > 75%. B60 was tested, and the peptide exchange yield was > 75%. With B61 the peptide exchange yield was > 75%. For B62, the peptide exchange yield was > 75%. With B63 the peptide exchange yield was > 75%. In the case of B64, the peptide exchange yield is reported as > 75%. In the case of B65, the peptide exchange yield is reported as > 75%. B66 was tested, and the peptide exchange yield was > 75%.
